Data as given in PMC6549136.

Biological target: Rpc31, endogenous in hmt1Δ yeast cells (hypomethylated) (S. cerevisiae (endogenous in yeast cells)) (UniProt P17890)
Assay: co-IP; α-Rpc31 antibody cross-linked to magnetic beads; yeast lysates at 10 mg/ml, 2 h at 4°C; three washes with PBS, 0.5% Triton X-100, 2.5 mM MgCl2; immunoblot; cells before and after treatment with CPZ for 1 h

Chain of UniProt P17890 (P17890 whole entry, stated change not applied): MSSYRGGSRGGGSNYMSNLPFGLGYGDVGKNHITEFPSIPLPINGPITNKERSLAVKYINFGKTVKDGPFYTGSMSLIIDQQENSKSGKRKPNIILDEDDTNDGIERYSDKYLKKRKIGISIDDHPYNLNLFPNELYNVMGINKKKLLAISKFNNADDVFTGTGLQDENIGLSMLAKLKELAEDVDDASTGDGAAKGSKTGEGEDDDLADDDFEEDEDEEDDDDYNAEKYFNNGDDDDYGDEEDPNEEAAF

Substance: Myc-tagged Maf1-7SA (from UniProt P41910 1-395) (natural protein)
- association relative to that in WT cells, after CPZ (% lower than in WT cells): 40
